The nature of the data set: total protein half-life in vivo (active degradation + dilution); higher = more stable protein.
[1] abbreviates: E. coli NCM3722 delta-clpP delta-lon delta-hslV, growth: N-lim chemostat, doubling time 6 h.
[2] abbreviates: E. coli NCM3722 delta-clpP, growth: N-lim chemostat, doubling time 6 h.
The mark [3] stands for this setting: E. coli NCM3722 delta-hslV, growth: N-lim chemostat, doubling time 6 h.
Setting [4] is: E. coli NCM3722 delta-lon, growth: N-lim chemostat, doubling time 6 h.
The mark [5] stands for this setting: E. coli NCM3722 delta-smpB, growth: N-lim chemostat, doubling time 6 h.
Setting [6] is: wild type E. coli NCM3722, growth: C-lim chemostat, doubling time 3 h.
The mark [7] stands for this setting: wild type E. coli NCM3722, growth: C-lim chemostat, doubling time 6 h.
Setting [8] is: wild type E. coli NCM3722, growth: C-lim chemostat, doubling time 12 h.
Setting [9] is: wild type E. coli NCM3722, growth: N-lim chemostat, doubling time 6 h.
Where [10] appears, read: wild type E. coli NCM3722, growth: N-lim chemostat, doubling time 12 h.
[11] abbreviates: wild type E. coli NCM3722, growth: P-lim chemostat, doubling time 6 h.
Setting [12] is: wild type E. coli NCM3722, growth: P-lim chemostat, doubling time 12 h.

± gives the standard deviation of the averaged measurements. Some results are limits rather than exact numbers.

The source of these data is the supplement of paper PMC11246515.

As to “MLTRLREIVEKVASAPRLNEALNILVTDICLAMDTEVCSVYLADHDRRCYYLMATRGLKKPRGRTVTLAFDEGIVGLVGRLAEPINLADAQKHPSFKYIPSVKEERFRAFLGVPIIQRRQLLGVLVVQQRELRQYDESEESFLVTLATQMAAILSQSQLTALFGQYRQTRIRALPAAPGVAIAEGWQDATLPLMEQVYQASTLDPALERERLTGALEEAANEFRRYSKRFAAGAQKETAAIFDLYSHLLSDTRLRRELFAEVDKGSVAEWAVKTVIEKFAEQFAALSDNYLKERAGDLRALGQRLLFHLDDANQGPNAWPERFILVADELSATTLAELPQDRLVGVVVRDGAANSHAAIMVRALGIPTVMGADIQPSVLHRRTLIVDGYRGELLVDPEPVLLQEYQRLISEEIELSRLAEDDVNLPAQLKSGERIKVMLNAGLSPEHEEKLGSRIDGIGLYRTEIPFMLQSGFPSEEEQVAQYQGMLQMFNDKPVTLRTLDVGADKQLPYMPISEENPCLGWRGIRITLDQPEIFLIQVRAMLRANAATGNLNILLPMVTSLDEVDEARRLIERAGREVEEMIGYEIPKPRIGIMLEVPSMVFMLPHLAKRVDFISVGTNDLTQYILAVDRNNTRVANIYDSLHPAMLRALAMIAREAEIHGIDLRLCGEMAGDPMCVAILIGLGYRHLSMNGRSVARAKYLLRRIDYAEAENLAQRSLEAQLATEVRHQVAAFMERRGMGGLIRGGL”, the “total protein half-life in vivo” value was 5.82 ± 0.99 h under setting [1]; 5.146 ± 0.0092 h under setting [2]; 4.39 ± 0.15 h under setting [3]; 4.53 ± 0.17 h under setting [4]; 4.44 ± 0.084 h under setting [5]; 3.06 ± 0.15 h under setting [6]. In addition, the “total protein half-life in vivo” value turned out to be 5.78 ± 0.21 h under setting [7]; 10.7 ± 0.17 h under setting [8]; 4.37 ± 0.11 h under setting [9]; 7.03 ± 0.12 h under setting [10]; 6.54 ± 0.36 h under setting [11]; 11.5 ± 1.8 h under setting [12].
Take “MKKLAIAGALLLLAGCAEVENYNNVVKTPAPDWLAGYWQTKGPQRALVSPEAIGSLIVTKEGDTLDCRQWQRVIAVPGKLTLMSDDLTNVTVKRELYEVERDGNTIEYDGMTMERVDRPTAECAAALDKAPLPTPLP”: the “total protein half-life in vivo” value under setting [1] came out at 7.04 ± 1.3 h; the “total protein half-life in vivo” value under setting [2] is 6.08 ± 0.62 h; the “total protein half-life in vivo” value under setting [3] was found to be 6.36 ± 0.14 h; the “total protein half-life in vivo” value under setting [4] was 7.26 ± 0.97 h; the “total protein half-life in vivo” value under setting [5] came out at 6.12 ± 0.1 h; the “total protein half-life in vivo” value under setting [6] was found to be 3 ± 0.23 h. Further, the “total protein half-life in vivo” value runs as follows: under setting [7], 6.16 ± 0.61 h; under setting [9], 4.4 ± 3.5 h; under setting [10], 12.5 ± 0.86 h; under setting [11], 6.19 ± 0.15 h; under setting [12], 12.4 ± 0.42 h.
As for “MRIVTAAVMASTLAVSSLSHAAEVGSGDNWHPGEELTQRSTQSHMFDGISLTEHQRQQMRDLMQQARHEQPPVNVSELETMHRLVTAENFDENAVRAQAEKMANEQIARQVEMAKVRNQMYRLLTPEQQAVLNEKHQQRMEQLRDVTQWQKSSSLKLLSSSNSRSQ [P0AE85]”, the “total protein half-life in vivo” value reads like this: under setting [1], 2.56 ± 0.11 h; under setting [2], 4.81 h; under setting [3], 1.65 h; under setting [4], greater than 8 h; under setting [5], 2.394 ± 0.017 h; under setting [7], 2.391 ± 0.0025 h. In addition, the “total protein half-life in vivo” value is, setting by setting: under setting [10], 3.54 ± 0.086 h; under setting [12], 2.99 h.
In the case of “MMILSILATVVLLGALFYHRVSLFISSLILLAWTAALGVAGLWSAWVLVPLAIILVPFNFAPMRKSMISAPVFRGFRKVMPPMSRTEKEAIDAGTTWWEGDLFQGKPDWKKLHNYPQPRLTAEEQAFLDGPVEEACRMANDFQITHELADLPPELWAYLKEHRFFAMIIKKEYGGLEFSAYAQSRVLQKLSGVSGILAITVGVPNSLGPGELLQHYGTDEQKDHYLPRLARGQEIPCFALTSPEAGSDAGAIPDTGIVCMGEWQGQQVLGMRLTWNKRYITLAPIATVLGLAFKLSDPEKLLGGAEDLGITCALIPTTTPGVEIGRRHFPLNVPFQNGPTRGKDVFVPIDYIIGGPKMAGQGWRMLVECLSVGRGITLPSNSTGGVKSVALATGAYAHIRRQFKISIGKMEGIEEPLARIAGNAYVMDAAASLITYGIMLGEKPAVLSAIVKYHCTHRGQQSIIDAMDITGGKGIMLGQSNFLARAYQGAPIAITVEGANILTRSMMIFGQGAIRCHPYVLEEMEAAKNNDVNAFDKLLFKHIGHVGSNKVRSFWLGLTRGLTSSTPTGDATKRYYQHLNRLSANLALLSDVSMAVLGGSLKRRERISARLGDILSQLYLASAVLKRYDDEGRNEADLPLVHWGVQDALYQAEQAMDDLLQNFPNRVVAGLLNVVIFPTGRHYLAPSDKLDHKVAKILQVPNATRSRIGRGQYLTPSEHNPVGLLEEALVDVIAADPIHQRICKELGKNLPFTRLDELAHNALVKGLIDKDEAAILVKAEESRLRSINVDDFDPEELATKPVKLPEKVRKVEAA”, the “total protein half-life in vivo” value by setting is: under setting [1], 6.66 ± 0.19 h; under setting [2], 5.65 ± 0.067 h; under setting [3], 2.2 ± 0.21 h; under setting [4], 2.48 ± 0.52 h; under setting [5], 1.82 ± 0.079 h; under setting [6], 1.43 ± 0.11 h. For the same sequence, the “total protein half-life in vivo” value runs as follows: under setting [7], 1.86 ± 0.12 h; under setting [8], 2.9 ± 0.51 h; under setting [9], 2.2 ± 0.1 h; under setting [10], 3.64 ± 0.49 h; under setting [11], 2.01 ± 0.24 h; under setting [12], 3.65 ± 0.59 h.
In the case of “MSGDILQTPDAPKPQGALDNYFKITARGSTVRQEVLAGLTTFLAMVYSVIVVPGMLGKAGFPPAAVFVATCLVAGFGSLLMGLWANLPMAIGCAISLTAFTAFSLVLGQQISVPVALGAVFLMGVIFTAISVTGVRTWILRNLPMGIAHGTGIGIGLFLLLIAANGVGMVIKNPIEGLPVALGAFTSFPVMMSLLGLAVIFGLEKCRVPGGILLVIIAISIIGLIFDPAVKYHGLVAMPSLTGEDGKSLIFSLDIMGALQPTVLPSVLALVMTAVFDATGTIRAVAGQANLLDKDNQIINGGKALTSDSVSSIFSGLVGAAPAAVYIESAAGTAAGGKTGLTATVVGALFLLILFLSPLSFLIPGYATAPALMYVGLLMLSNVSKLDFNDFIDAMAGLVCAVFIVLTCNIVTGIMLGFVTLVVGRVFAREWQKLNIGTVIITAALVAFYAGGWAI”, the “total protein half-life in vivo” value is, setting by setting: under setting [1], 4.51 ± 0.38 h; under setting [2], 5.04 ± 0.2 h; under setting [3], 5.05 h; under setting [4], 4.88 h; under setting [5], 4.98 ± 0.49 h; under setting [6], 3.28 ± 0.56 h. Also, the “total protein half-life in vivo” value reads like this: under setting [7], 4.99 ± 0.19 h; under setting [9], 4.98 h; under setting [10], 9.21 ± 0.52 h; under setting [11], greater than 8 h; under setting [12], 9.89 ± 0.52 h.
For “MAMYQNMLVVIDPNQDDQPALRRAVYLHQRIGGKIKAFLPIYDFSYEMTTLLSPDERTAMRQGVISQRTAWIHEQAKYYLNAGVPIEIKVVWHNRPFEAIIQEVISGGHDLVLKMAHQHDRLEAVIFTPTDWHLLRKCPSPVWMVKDQPWPEGGKALVAVNLASEEPYHNALNEKLVKETIELAEQVNHTEVHLVGAYPVTPINIAIELPEFDPSVYNDAIRGQHLLAMKALRQKFGINENMTHVEKGLPEEVIPDLAEHLQAGIVVLGTVGRTGISAAFLGNTAEQVIDHLRCDLLVIKPDQYQTPVELDDEEDD [P0AAC0]”, the “total protein half-life in vivo” value was found to be 4.78 ± 0.088 h under setting [1]; 4.77 ± 0.46 h under setting [2]; 4.73 ± 0.4 h under setting [3]; 5.473 ± 0.017 h under setting [4]; 4.47 ± 0.11 h under setting [5]; 2.97 ± 0.39 h under setting [6]. Besides, the “total protein half-life in vivo” value by setting is: under setting [7], 5.6 ± 0.071 h; under setting [8], 9.86 ± 0.44 h; under setting [9], 5.01 ± 0.17 h; under setting [10], 8.64 ± 0.4 h; under setting [11], 5.56 ± 0.67 h; under setting [12], 12.2 ± 0.15 h.
